# T1: CD19 antigen (analyte of the Octet affinity assay) (UniProt P15391 20-291)
# T1 chain: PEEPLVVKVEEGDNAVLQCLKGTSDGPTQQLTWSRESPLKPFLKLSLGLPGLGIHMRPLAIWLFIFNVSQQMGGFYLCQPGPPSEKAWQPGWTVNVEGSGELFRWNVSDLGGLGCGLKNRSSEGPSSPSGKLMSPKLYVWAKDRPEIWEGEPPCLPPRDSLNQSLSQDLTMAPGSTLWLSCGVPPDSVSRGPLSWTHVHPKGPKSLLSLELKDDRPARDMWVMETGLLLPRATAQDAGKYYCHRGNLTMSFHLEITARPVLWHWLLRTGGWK
# Key:
# [1] = target: T1, CD19 antigen (analyte of the Octet …); test: BLI
# FMC63 = test: BLI
Kd [1] [nM],Binder,Kd (FMC63) [nM]
21.9,#78 anti-CD19 scFv-rFc (Fc fusion) scFv: QAVLTQPPSVSEAPRQRVTISCSGSSSNIGNNAVSWYQQLPGKAPKLLIYYDDLLPSGVSDRFSGSKSGTSASLAISGLQSEDEADYYCAAWDDSLNGWVFGGGTKVTVLGSRGGGGSGGGGSGGGGSLEEVQLVQSGAEVKKPGESLKISCKGSGYSFTSYWIGWVRQMPGKGLEWMGIIYPGDSDTRYSPSFQGQVTISADKSISTAYLQWSSLKASDTAMYYCARLSYSWSSWYWDFWGQGTLVTVSS,
,CD19 antigen (receptor) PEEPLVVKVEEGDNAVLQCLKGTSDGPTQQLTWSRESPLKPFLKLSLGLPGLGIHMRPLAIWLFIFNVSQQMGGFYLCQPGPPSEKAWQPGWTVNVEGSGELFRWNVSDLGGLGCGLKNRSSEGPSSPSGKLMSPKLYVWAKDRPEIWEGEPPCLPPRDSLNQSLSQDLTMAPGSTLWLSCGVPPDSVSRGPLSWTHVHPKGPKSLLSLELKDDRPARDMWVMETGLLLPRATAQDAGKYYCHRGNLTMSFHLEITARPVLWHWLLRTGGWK,10.7
51.1,#62 anti-CD19 scFv-rFc (Fc fusion) scFv: QSVVTQPPSVSGAPGQRVTISCTGSSSNIGAGYDVHWYQQLPGTAPKLLIYENTNRPSGVPDRFSGSKSGTSASLAITGLQAEDEADYYCQSYDSSLSGWRVFGGGTKLTVLGSRGGGGSGGGGSGGGGSLEMAEVQLVQSGAEVKKPGESLKISCKGSGYSFTNSWIGWVRQMPGKGLEWMGLIYPDDSDTRYSPSFQGQVTISADSAINTAYLQWSSLKASDTAMYYCARQSTYIYGGYYDTWGQGTLVTVSS,
